Laboratory results published in US20190015518A1, “DRUG DELIVERY COMPOSITIONS AND METHODS” (priority 2016, published 2019).

Tests used:
[1] = Hematology of a healthy dog given 1.5 mg/kg on day 1 and 2.0 mg/kg on day 70, sub-mucosa; format: in vivo
Protocol: Before each dose, the dog was examined by clinical chemistry, hematology, and urinalysis. Additional examinations of clinical chemistry and hematology were performed on days 7, 14, and 42 after the first dose. Additional tests of urinalysis were performed on days 7 and 14 after the first dose. The potential drug-induced toxicities were monitored for 56 days after the second dose. Specifically, clinical chemistry and urinalysis were performed on days 7, 14, 21, and 56, and hematology was performed on days 7, 14, and 56 after the second dose to evaluate the tolerability and toxicity of the formulation.
Hematology examinations were performed at pre- and post-dose for both injections. The injections were given via the sub-mucosa in the mouth.

[2] = tested on: MDA-1986 head and neck tumors; test: Anticancer efficacy, orthotopic xenograft model of human HNSCC; format: in vivo, mouse; set-up: key to tumor response, Modified RECIST: PR=Partial Response (>30% reduction); PD=Progressive Disease (>30% tumor growth); SD=Stable Disease (neither PR nor PD criteria met)
Protocol: The MDA-1986 cells were prepared in PBS at a concentration of 2×10^7 cells/mL. Female NU/NU mice were anesthetized under 2% isoflurane in O2, and 50 μL of cell solution was injected into the oral sub-mucosa of the mice using a 27-ga needle. All procedures in the animal study were approved by the Institutional Animal Care and Use Committee of the University of Kansas. Tumor growth was monitored twice weekly by measurement with a digital caliper, and the tumor volume was calculated as 0.52×(width)^2×(length). […] The drugs were given weekly for 3 consecutive weeks.

[3] = 20 mg/kg s.c., three weekly injections

HA-cis-[Pt(NH3)2(N^α-Acetyl-L-Lysine)] [75HA-Lys-Pt]
Differential white blood cell count, % BASO ([1]; 2 mg/kg, 7 days after): 0.9% | Differential white blood cell count, % EOS ([1]; 2 mg/kg, 7 days after): 1.9% | Differential white blood cell count, % LUC ([1]; 2 mg/kg, 7 days after): 0.8% | Differential white blood cell count, % LYMPH ([1]; 2 mg/kg, 7 days after): 29% | Differential white blood cell count, % MONO ([1]; 2 mg/kg, 7 days after): 7.5% | Differential white blood cell count, % NEUT ([1]; 2 mg/kg, 7 days after): 60% | Hematocrit ([1]; 2 mg/kg, 7 days after): 38% | Hemoglobin ([1]; 2 mg/kg, 7 days after): 12.7 g/dL | Hemoglobin distribution width ([1]; 2 mg/kg, 7 days after): 1.84 g/dL | Mean corpuscular (cell) hemoglobin ([1]; 2 mg/kg, 7 days after): 21.9 pg | Mean corpuscular (cell) hemoglobin concentration ([1]; 2 mg/kg, 7 days after): 33.4 g/dL | Mean corpuscular (cell) volume ([1]; 2 mg/kg, 7 days after): 65.6 fL | Platelet count ([1]; 2 mg/kg, 7 days after): 36 10^3/μL | Red blood cell count ([1]; 2 mg/kg, 7 days after): 5.79 10^6/μL | Red cell distribution width ([1]; 2 mg/kg, 7 days after): 13.5% | Reticulocyte count ([1]; 2 mg/kg, 7 days after): 1.59% | White blood cell count ([1]; 2 mg/kg, 7 days after): 8.2 10^3/μL | Differential white blood cell count, % BASO ([1]; 2 mg/kg, 14 days after): 0.5% | Differential white blood cell count, % EOS ([1]; 2 mg/kg, 14 days after): 3.4% | Differential white blood cell count, % LUC ([1]; 2 mg/kg, 14 days after): 0.6% | Differential white blood cell count, % LYMPH ([1]; 2 mg/kg, 14 days after): 28.5% | Differential white blood cell count, % MONO ([1]; 2 mg/kg, 14 days after): 4.3% | Differential white blood cell count, % NEUT ([1]; 2 mg/kg, 14 days after): 62.7% | Hematocrit ([1]; 2 mg/kg, 14 days after): 35.6% | Hemoglobin ([1]; 2 mg/kg, 14 days after): 11.8 g/dL | Hemoglobin distribution width ([1]; 2 mg/kg, 14 days after): 2.33 g/dL | Mean corpuscular (cell) hemoglobin ([1]; 2 mg/kg, 14 days after): 21.6 pg | Mean corpuscular (cell) hemoglobin concentration ([1]; 2 mg/kg, 14 days after): 33.1 g/dL | Mean corpuscular (cell) volume ([1]; 2 mg/kg, 14 days after): 65.2 fL | Platelet count ([1]; 2 mg/kg, 14 days after): 232 10^3/μL | Red blood cell count ([1]; 2 mg/kg, 14 days after): 5.47 10^6/μL | Red cell distribution width ([1]; 2 mg/kg, 14 days after): 14.2% | Reticulocyte count ([1]; 2 mg/kg, 14 days after): 3.2% | White blood cell count ([1]; 2 mg/kg, 14 days after): 10.43 10^3/μL | Differential white blood cell count, % BASO ([1]; 2 mg/kg, 56 days after): 0.7% | Differential white blood cell count, % EOS ([1]; 2 mg/kg, 56 days after): 4.3% | Differential white blood cell count, % LUC ([1]; 2 mg/kg, 56 days after): 0.5% | Differential white blood cell count, % LYMPH ([1]; 2 mg/kg, 56 days after): 26.6% | Differential white blood cell count, % NEUT ([1]; 2 mg/kg, 56 days after): 63.4% | Hematocrit ([1]; 2 mg/kg, 56 days after): 36.9% | Hemoglobin ([1]; 2 mg/kg, 56 days after): 12.1 g/dL | Hemoglobin distribution width ([1]; 2 mg/kg, 56 days after): 2.04 g/dL | Mean corpuscular (cell) hemoglobin ([1]; 2 mg/kg, 56 days after): 21.4 pg | Mean corpuscular (cell) hemoglobin concentration ([1]; 2 mg/kg, 56 days after): 32.8 g/dL | Mean corpuscular (cell) volume ([1]; 2 mg/kg, 56 days after): 65.4 fL | Red blood cell count ([1]; 2 mg/kg, 56 days after): 5.64 10^6/μL | Red cell distribution width ([1]; 2 mg/kg, 56 days after): 13.7% | Reticulocyte count ([1]; 2 mg/kg, 56 days after): 1.3% | White blood cell count ([1]; 2 mg/kg, 56 days after): 11.3 10^3/μL | Differential white blood cell count, % BASO ([1]; […], 7 days after): 0.7% | Differential white blood cell count, % EOS ([1]; […], 7 days after): 2.0% | Differential white blood cell count, % LUC ([1]; […], 7 days after): 0.6% | Differential white blood cell count, % LYMPH ([1]; […], 7 days after): 37.6% | Differential white blood cell count, % NEUT ([1]; […], 7 days after): 55.4% | Hematocrit ([1]; […], 7 days after): 37.8% | Hemoglobin ([1]; […], 7 days after): 12.7 g/dL | Hemoglobin distribution width ([1]; […], 7 days after): 2.08 g/dL | Mean corpuscular (cell) hemoglobin ([1]; […], 7 days after): 23.0 pg | Mean corpuscular (cell) hemoglobin concentration ([1]; […], 7 days after): 33.6 g/dL | Mean corpuscular (cell) volume ([1]; […], 7 days after): 68.4 fL | Platelets (footnote a) ([1]; […], 7 days after): ^aPlatelets appear adequate. Platelet clumps observed, number not reported. | Red blood cell count ([1]; […], 7 days after): 5.53 10^6/μL | Red cell distribution width ([1]; […], 7 days after): 13.3% | Reticulocyte count ([1]; […], 7 days after): 1.40% | White blood cell count ([1]; […], 7 days after): 7.69 10^3/μL | Differential white blood cell count, % BASO ([1]; […], 14 days): 0.7% | Differential white blood cell count, % EOS ([1]; […], 14 days): 2.0% | Differential white blood cell count, % LUC ([1]; […], 14 days): 0.6% | Differential white blood cell count, % LYMPH ([1]; […], 14 days): 37.6% | Differential white blood cell count, % NEUT ([1]; […], 14 days): 55.4% | Hematocrit ([1]; […], 14 days): 38.2% | Hemoglobin ([1]; […], 14 days): 12.6 g/dL | Hemoglobin distribution width ([1]; […], 14 days): 2.29 g/dL | Mean corpuscular (cell) hemoglobin ([1]; […], 14 days): 22.6 pg | Mean corpuscular (cell) hemoglobin concentration ([1]; […], 14 days): 33.0 g/dL | Mean corpuscular (cell) volume ([1]; […], 14 days): 68.7 fL | Platelet count ([1]; […], 14 days): 307 10^3/μL | Red blood cell count ([1]; […], 14 days): 5.56 10^6/μL | Red cell distribution width ([1]; […], 14 days): 13.7% | Reticulocyte count ([1]; […], 14 days): 1.84% | White blood cell count ([1]; […], 14 days): 12.91 10^3/μL | Differential white blood cell count, % BASO ([1]; […], 42 days): 1.4% | Differential white blood cell count, % EOS ([1]; […], 42 days): 2.0% | Differential white blood cell count, % LUC ([1]; […], 42 days): 0.8% | Differential white blood cell count, % LYMPH ([1]; […], 42 days): 37.6% | Differential white blood cell count, % MONO ([1]; […], 42 days): 5.1% | Differential white blood cell count, % NEUT ([1]; […], 42 days): 53.1% | Hematocrit ([1]; […], 42 days): 46.4% | Hemoglobin ([1]; […], 42 days): 15.3 g/dL | Hemoglobin distribution width ([1]; […], 42 days): 1.71 g/dL | Mean corpuscular (cell) hemoglobin ([1]; […], 42 days): 22.4 pg | Mean corpuscular (cell) hemoglobin concentration ([1]; […], 42 days): 33.0 g/dL | Mean corpuscular (cell) volume ([1]; […], 42 days): 67.9 fL | Platelet count ([1]; […], 42 days): 307 10^3/μL | Red blood cell count ([1]; […], 42 days): 6.83 10^6/μL | Red cell distribution width ([1]; […], 42 days): 12.4% | White blood cell count ([1]; […], 42 days): 10.82 10^3/μL | average tumor size by the end of the sixth week [2, 3]: less than 200 mm^3 | tumor progression delay [2, 3]: delayed by four weeks | tumor response, Modified RECIST ([2]; animal #1): PR (PR=Partial Response (>30% reduction)) | tumor response, Modified RECIST ([2]; animal #2): PR (PR=Partial Response (>30% reduction)) | tumor response, Modified RECIST ([2]; animal #3): PR (PR=Partial Response (>30% reduction)) | tumor response, Modified RECIST ([2]; animal #4): SD | tumor response, Modified RECIST ([2]; animal #5): SD | tumor response, Modified RECIST ([2]; animal #6): PR (PR=Partial Response (>30% reduction)) | tumor response, Modified RECIST ([2]; animal #7): SD | tumor response, Modified RECIST ([2]; animal #8): PR (PR=Partial Response (>30% reduction)) | rate of partial response (PR) ([2]; three weekly injections): 62.5%
